The numbers were not newly measured in patent US20230002502A1, “METHODS AND PRODUCTS FOR REDUCING SIDE EFFECTS ASSOCIATED WITH USE OF IMMUNE AGONIST ANTIBODIES” (South Australian Health and Medical Research Institute …, priority 2019, published 2023), which cites them from elsewhere.

Entries after “also recorded” stand apart in the source; their conditions may differ. Like-named read-outs stand apart in the source and are kept apart here.

The subject of this data set is patients. The following applies: for toxicity reported in clinical trials: patients.

Take urelumab: an anti-CD137 IAA, IgG4: the “toxicity reported in clinical trials” value is “severe dose-dependent liver toxicity; also recorded: high rates of dose dependent liver toxicity, resulting in several deaths”. For the same substance, the “clinical trial results at lower dose” value (8 mg/patient, alone or in combination with anti-PD1) is reported as “overall disappointing results”. Under “listed as Urelumab”, the “toxicity reported in clinical trials” value is “severe (grade 3 and above) liver damage”.
